± gives the uncertainty stated by the source.

First the molecules themselves.
B1: POU domain, class 5, transcription factor 1, residues 134 to 212; numbered along this chain, Q01860 (parent)
chain: EESQDIKALQKELEQFAKLLKQKRITLGYTQADVGLTLGVLFGKVFSQTTICRFEALQLSFKNMCKLRPLLQKWVEEAD

Variants of B1 are the subject of the data set. Nature of the data set: abundance fitness (aPCA) (normalised: wild type 0, dead -1); higher = more abundant; growth selection in yeast, the domain comes from the species named. Particulars: Homo sapiens.
Regarding EESQDIKALQKELEQFAKLLKQKRITLGYTQADVGLTLGVLFGYVFSQTTICRFEALQLSFKNMCKLRPLLQKWVEEAD [K44Y], the abundance fitness was -0.489 ± 0.44. For EESQDIKALQKELEQFAKLLKQKRITLGYTQADVGLTLGVLFGKVFAQTTICRFEALQLSFKNMCKLRPLLQKWVEEAD [S47A], the abundance fitness was -0.379 ± 0.22. On to EESQDIKALQKELEQFAKLLKQKRITLGYTQADVGLTLGVLFGKVFDQTTICRFEALQLSFKNMCKLRPLLQKWVEEAD [S47D], for which the abundance fitness was -0.323 ± 0.28. Consider EESQDIKALQKELEQFAKLLKQKRITLGYTQADVGLTLGVLFGKVLSQTTICRFEALQLSFKNMCKLRPLLQKWVEEAD [F46L], for which the abundance fitness turned out to be 0.211 ± 0.083.

In the case of EESQDIKALQKELEQFAKLLKQKRITLGYTQADVGLTLGVLFGKVVSQTTICRFEALQLSFKNMCKLRPLLQKWVEEAD [F46V], the abundance fitness is 0.411 ± 0.074. Take EESQDIKALQKELEQFAKLLKQKRITLGYTQADVGLTLGVLFGKVMSQTTICRFEALQLSFKNMCKLRPLLQKWVEEAD [F46M]: the abundance fitness stood at 0.023 ± 0.17.

As to EESQDIKALQKELEQFAKLLKQKRITLGYTQADVGLTLGVLFGKVDSQTTICRFEALQLSFKNMCKLRPLLQKWVEEAD [F46D], the abundance fitness was determined as 0.136 ± 0.19.

Regarding EESQDIKALQKELEQFAKLLKQKRITLGYTQADVGLTLGVLFGKVCSQTTICRFEALQLSFKNMCKLRPLLQKWVEEAD [F46C], the abundance fitness was 0.311 ± 0.14. With EESQDIKALQKELEQFAKLLKQKRITLGYTQADVGLTLGVLFGKVPSQTTICRFEALQLSFKNMCKLRPLLQKWVEEAD [F46P], the abundance fitness came to 0.029 ± 0.15. The figure for EESQDIKALQKELEQFAKLLKQKRITLGYTQADVGLTLGVLFGKVWSQTTICRFEALQLSFKNMCKLRPLLQKWVEEAD [F46W] is -0.398 ± 0.19. The figure for EESQDIKALQKELEQFAKLLKQKRITLGYTQADVGLTLGVLFGKVTSQTTICRFEALQLSFKNMCKLRPLLQKWVEEAD [F46T] is 0.025 ± 0.2; for EESQDIKALQKELEQFAKLLKQKRITLGYTQADVGLTLGVLFGKVASQTTICRFEALQLSFKNMCKLRPLLQKWVEEAD [F46A] it is -0.147 ± 0.13; for EESQDIKALQKELEQFAKLLKQKRITLGYTQADVGLTLGVLFGKVSSQTTICRFEALQLSFKNMCKLRPLLQKWVEEAD [F46S] it is -0.553 ± 0.28. EESQDIKALQKELEQFAKLLKQKRITLGYTQADVGLTLGVLFGKVRSQTTICRFEALQLSFKNMCKLRPLLQKWVEEAD [F46R]: the abundance fitness was -0.429 ± 0.14. On to EESQDIKALQKELEQFAKLLKQKRITLGYTQADVGLTLGVLFGKVESQTTICRFEALQLSFKNMCKLRPLLQKWVEEAD [F46E], for which the abundance fitness is -0.293 ± 0.15.

On to EESQDIKALQKELEQFAKLLKQKRITLGYTQADVGLTLGVLFGKVGSQTTICRFEALQLSFKNMCKLRPLLQKWVEEAD [F46G], for which the abundance fitness is -0.714 ± 0.16. For the variant EESQDIKALQKELEQFAKLLKQKRITLGYTQADVGLTLGVLFGKVKSQTTICRFEALQLSFKNMCKLRPLLQKWVEEAD [F46K], the abundance fitness is -0.17 ± 0.3.

EESQDIKALQKELEQFAKLLKQKRITLGYTQADVGLTLGVLFGKVISQTTICRFEALQLSFKNMCKLRPLLQKWVEEAD [F46I]: the abundance fitness worked out at 0.107 ± 0.24. With EESQDIKALQKELEQFAKLLKQKRITLGYTQADVGLTLGVLFGKTFSQTTICRFEALQLSFKNMCKLRPLLQKWVEEAD [V45T], the abundance fitness is -0.005 ± 0.11. Consider EESQDIKALQKELEQFAKLLKQKRITLGYTQADVGLTLGVLFGKEFSQTTICRFEALQLSFKNMCKLRPLLQKWVEEAD [V45E], for which the abundance fitness came out at 0.16 ± 0.05. EESQDIKALQKELEQFAKLLKQKRITLGYTQADVGLTLGVLFGKDFSQTTICRFEALQLSFKNMCKLRPLLQKWVEEAD [V45D]: the abundance fitness was -0.28 ± 0.13. Consider EESQDIKALQKELEQFAKLLKQKRITLGYTQADVGLTLGVLFGKHFSQTTICRFEALQLSFKNMCKLRPLLQKWVEEAD [V45H], for which the abundance fitness came out at 0.013 ± 0.082. The figure for EESQDIKALQKELEQFAKLLKQKRITLGYTQADVGLTLGVLFGKAFSQTTICRFEALQLSFKNMCKLRPLLQKWVEEAD [V45A] is 0.127 ± 0.049.

Consider EESQDIKALQKELEQFAKLLKQKRITLGYTQADVGLTLGVLFGKNFSQTTICRFEALQLSFKNMCKLRPLLQKWVEEAD [V45N], for which the abundance fitness came out at 0.001 ± 0.25.

EESQDIKALQKELEQFAKLLKQKRITLGYTQADVGLTLGVLFGKMFSQTTICRFEALQLSFKNMCKLRPLLQKWVEEAD [V45M]: the abundance fitness is -0.122 ± 0.21. Turning to EESQDIKALQKELEQFAKLLKQKRITLGYTQADVGLTLGVLFGKGFSQTTICRFEALQLSFKNMCKLRPLLQKWVEEAD [V45G], the abundance fitness was -0.153 ± 0.043. In the case of EESQDIKALQKELEQFAKLLKQKRITLGYTQADVGLTLGVLFGKCFSQTTICRFEALQLSFKNMCKLRPLLQKWVEEAD [V45C], the abundance fitness was -0.101 ± 0.093. As for EESQDIKALQKELEQFAKLLKQKRITLGYTQADVGLTLGVLFGKLFSQTTICRFEALQLSFKNMCKLRPLLQKWVEEAD [V45L], the abundance fitness was -0.338 ± 0.12. Turning to EESQDIKALQKELEQFAKLLKQKRITLGYTQADVGLTLGVLFGKKFSQTTICRFEALQLSFKNMCKLRPLLQKWVEEAD [V45K], the abundance fitness is 0.085 ± 0.1.

EESQDIKALQKELEQFAKLLKQKRITLGYTQADVGLTLGVLFGKSFSQTTICRFEALQLSFKNMCKLRPLLQKWVEEAD [V45S]: the abundance fitness was determined as 0.012 ± 0.077. In the case of EESQDIKALQKELEQFAKLLKQKRITLGYTQADVGLTLGVLFGKQFSQTTICRFEALQLSFKNMCKLRPLLQKWVEEAD [V45Q], the abundance fitness stood at 0.044 ± 0.091.

On to EESQDIKALQKELEQFAKLLKQKRITLGYTQADVGLTLGVLFGKFFSQTTICRFEALQLSFKNMCKLRPLLQKWVEEAD [V45F], for which the abundance fitness is -0.15 ± 0.17.

Regarding EESQDIKALQKELEQFAKLLKQKRITLGYTQADVGLTLGVLFGKWFSQTTICRFEALQLSFKNMCKLRPLLQKWVEEAD [V45W], the abundance fitness is -0.143 ± 0.058. With EESQDIKALQKELEQFAKLLKQKRITLGYTQADVGLTLGVLFGKRFSQTTICRFEALQLSFKNMCKLRPLLQKWVEEAD [V45R] the figure was 0.036 ± 0.049; with EESQDIKALQKELEQFAKLLKQKRITLGYTQADVGLTLGVLFGKPFSQTTICRFEALQLSFKNMCKLRPLLQKWVEEAD [V45P], 0.12 ± 0.077.

The values are drawn from the Human Domainome abundance scans (Beltran et al. 2025).
